Experimental findings from paper PMC4151172 are described below.

pIC50: −log10 of the molar value.

This assay has as its target HLA-DR1 (HLA-DRB1*01:01), soluble recombinant MHCII (human). Nature of the assay: fluorescence polarisation.

Turning to “HA(306-318), unlabeled influenza hemagglutinin peptide”, the negative-log IC50 (pIC50) (as a rule, −log10 of the IC50, conventionally taken in molar units) was 7.60.
